Data: article doi:10.1101/2025.08.19.671101 (bioRxiv, 2025)

T1: 10E8-GT12 (synthetic construct; HIV-1 MPER helix …, N-linked glycan density at N74/75)
T1 construct: also called MPER-GT immunogen
T1 chain: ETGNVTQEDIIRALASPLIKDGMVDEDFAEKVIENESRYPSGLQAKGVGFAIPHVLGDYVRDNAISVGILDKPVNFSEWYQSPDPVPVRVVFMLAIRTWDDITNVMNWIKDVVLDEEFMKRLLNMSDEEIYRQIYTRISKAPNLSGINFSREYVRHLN

T2: 10E8-GT10.2 (synthetic construct; HIV-1 MPER helix …, N-linked glycan density at N74/75)
T2 construct: also called MPER-GT immunogen
T2 chain: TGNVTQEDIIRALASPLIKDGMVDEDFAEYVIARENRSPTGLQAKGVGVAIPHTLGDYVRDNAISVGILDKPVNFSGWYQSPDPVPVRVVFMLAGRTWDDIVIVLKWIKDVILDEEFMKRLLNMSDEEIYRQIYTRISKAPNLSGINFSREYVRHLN


What was measured:
10E8-GT12 = target: T1, 10E8-GT12; assay: SPR; settings: both partners purified
10E8-GT10.2 = target: T2, 10E8-GT10.2; assay: SPR; settings: both partners purified

Row | Binder | Kd (10E8-GT12) [nM] | Kd (10E8-GT10.2) [nM]
1 | SA684_Exp1_Scaf_MPER-GT10v55_W6-03 (Fab, V domains shown, source: FreeStyle 293F cells, transfected, purified) VH: DVQLQESGPGLVKPSQSLSLTCSVTGYSITSGYYWNWIRQFPGNKLEWMGYISYDGSNNYNPSLKNRISITRDTSQNQFFLKLNSVTTEDTASYYCAREGPYYDFWSGYYAYYMDVWGKGTTVTVSS VL: DIVMSQSPSSLAVSVGEKVTMSCKSSQSLLYSSNQKNYLAWYQQKPGQSPKLLIYWASTRKSGVPDRFTGSGSGTDFTLTISSVKAEDLAVYYCQQYFGYPLTFGAGTKLELK | 8.5 | 9
2 | SA684_Exp1_Scaf_MPER-GT12v56_W6-10 (Fab, V domains shown, also called off-target mouse Fab W6-10; source: FreeStyle 293F cells, transfected, purified) VH: QVTLKESGPGILQPSQTLSLTCSFSGFSLSTFGMGVGWIRQPSGKGLEWLAHIWWDDDKFYNPALKSRLTISKDTSKNQVFLKIANVDTADTATYYCARIGEDYFLDVWGKGTTVTVSS VL: DIQMTQSPASLSASVGETVTITCRASGNIHNYLAWYQQKQGKSPQLLVYNAKTLADGVPSRFSGSGSGTQYSLKINSLQPEDFGSYYCQHFWSAPYTFGGGTNLEIK | 1.8 | 3
3 | NHP-10E8_MPER-GT10v55_W3-05 (Fab, V domains shown, source: FreeStyle 293F cells, transfected, purified) VH: EVQLVESGGGLVQPGGSLRLSCAASGFTFSNYWMSWVRQAPGKGLEWVGFIKNKADGGTAAYAESVKGRFTISRDDSKNTLYLQMNSLKTEDTAVYYCARDLGRYNFWSGFYSQNRFDVWGPGVLVTVSS VL: SYEVTQPPSVSVSPGQMARITCGGDNLGSKYVHWYQQKPAQAPVLVIYDDSERPSGIPERFSGSKSGNTATLTISGVEAGDEADYYCQVWDSSSDHPLFGGGTRLTVL | 490 | 19
4 | NHP-10E8_MPER-GT10v55_W3-02 (Fab, V domains shown, source: FreeStyle 293F cells, transfected, purified) VH: EVQLVESGGGLVQPGGSLKLSCAASGFTFSDHYMDWVRQAPGKGLEWVSSVSSGSGSATLYPDSVKGRFTISRDNAKNTVYLQMNSLRAEDTAVYYCARRGLYYDFWSGYSDFYYGLDSWGQGVVVTVSS VL: DIVMTQTPLSLPITPGEPASISCRSSQSLLQSNGNTYLHWYLQKPGQSPQLLIYGGSNRASGVPDRFSGSGSGTDFTLKISKVEAEDVGVYYCVQAIAFPFTFGPGTKLDIK | 3400 | 7.5
5 | SA2102_10E8-like_2911_Fab (Fab, V domains shown, also called SA2911; source: FreeStyle 293F cells, transfected, purified) VH: QVQLKQSGPGLVQPSQSLSITCTVSGFSLTSYGVHWVRQSPGKGLEWLGVIWSGGSTDYNAAFISRLSISKDNSKSQVFFKMNSLQADDTAIYYCARAPPYYDFWSGYSYYYYYMDVWGKGTTVTV VL: not shown | 534 | 787
